# Experiments:
# [1] = Dynamic mechanical analysis (DMA) of SELP hydrogels; format: physicochemical; conditions: 12 wt % hydrogels
# Description: It was predicted that polymer structure would also play a large role in the mechanical properties of the hydrogels. Dynamic mechanical analysis (DMA) was used to examine hydrogels made from each of the SELP analogues, and as predicted, there was a strong dependence of the results on the silk and elastin content of the polymers, and the arrangement of the silk and elastin blocks. […] This is opposite the order observed in the swelling studies, which is to be expected assuming the crosslinking density decreases with increasing swelling and decreasing mechanical properties for analogous materials. The legend for the graph shown in FIG. 8 is as follows: triangles: SELP-47K, squares: SELP-815K, diamonds: SELP-415K. Highly controlled structure in SELPs allows fine-tuning of mechanical properties.
# To gain further insight into the hydrogel pore structure, network properties were examined as a function of polymer sequence by small angle neutron scattering (SANS) techniques (FIG. 9). SANS allows the examination of microstructures in the range 1-100 nm through the analysis of elastic neutron scattering. […] The calculated correlation length (Table 3) depicts a trend in the observation that are in the order SELP-415K>SELP-815K>SELP-47K. […]
# [2] = tested on: JHU-022 tumors; test: GDEPT (HSV-tk/GCV) efficacy study, tumor size and luciferase imaging; format: in vivo, nude mice; conditions: 4 wt % with virus + GCV
# Procedure: In order to fully illustrate the potential of SELP as an injectable, in situ gel forming delivery system for the treatment of HNSCC solid tumors, a study was performed on the efficacy of this system using a GDEPT approach. The system chosen was herpes simplex virus thymidine kinase (HSV-tk) as the enzyme, and ganciclovir (GCV) as the prodrug. To accomplish this, a custom adenoviral construct was designed and used for this study. The construct contained genes which encode for HSV-tk and genes which encode for luciferase, a common reporter enzyme. This novel construct allowed both efficacy and biodistribution to be assessed simultaneously in vivo. Specifically, by combining these two genes in one virus, it becomes possible to track the location of transfection while simultaneously evaluating the efficacy of the treatment.
# Appropriate controls were included. Luciferase expression was measured by injecting luciferin potassium salt intraperitoneally, and following appropriate time to allow distribution of luciferin the animals were imaged using a Xenogen IVIS100 imaging system (Caliper Life Sciences, Hopkinton, Mass.) which allows visualization of luciferase expression without sacrificing the animal. As a measure of efficacy the tumors were measured with calipers every 3 to 4 days. […]
# [3] = molecular target: MMP-9 (Homo sapiens, UniProt P14780); test: Hydrogel protein loss in the presence of MMP-9; format: biochemical; conditions: 10 wt % hydrogel, MMP-9 10 nM, two weeks
# Procedure: The properties of hydrogels formed from SELPs are strongly dependent on the shear applied to liquid solutions of polymer prior to gelation. SELPs solubilized in phosphate buffered saline were loaded into a 1 ml luer-lock syringe connected at the hub to another 1 ml luer-lock syringe via two 27G needles, joined by a section of 0.0155″ HPLC tubing. The SELP solution was passed through this device at maximum hand pressure for five full bidirectional cycles, at which point it was used for studies.
# Hydrogels were characterized for their sensitivity to MMP degradation in the context of protein loss from the gel, changes in mechanical properties, and release of model 100 nm fluorescent nanoparticles. […] Syringes were sealed with Parafilm and allowed to gel upright overnight at 37° C. […]
# Protein loss was quantified using a Modified Lowry Assay Kit, and using known SELP solutions for the standard curve instead of the supplied bovine serum albumin, as SELP contains few Lowry-reactive amino acids. The mechanical properties of SELPs were evaluated in cyclic compression at 1 Hz and 1% strain, with ˜10 grams of preloading applied for 10 minutes to eliminate stress relaxation. Stress was measured using a 2 lb load cell. Release was quantified by measuring the fluorescence of release samples with an excitation/emission of 260/515. […]
# Chain of MMP-9 (P14780 94-707): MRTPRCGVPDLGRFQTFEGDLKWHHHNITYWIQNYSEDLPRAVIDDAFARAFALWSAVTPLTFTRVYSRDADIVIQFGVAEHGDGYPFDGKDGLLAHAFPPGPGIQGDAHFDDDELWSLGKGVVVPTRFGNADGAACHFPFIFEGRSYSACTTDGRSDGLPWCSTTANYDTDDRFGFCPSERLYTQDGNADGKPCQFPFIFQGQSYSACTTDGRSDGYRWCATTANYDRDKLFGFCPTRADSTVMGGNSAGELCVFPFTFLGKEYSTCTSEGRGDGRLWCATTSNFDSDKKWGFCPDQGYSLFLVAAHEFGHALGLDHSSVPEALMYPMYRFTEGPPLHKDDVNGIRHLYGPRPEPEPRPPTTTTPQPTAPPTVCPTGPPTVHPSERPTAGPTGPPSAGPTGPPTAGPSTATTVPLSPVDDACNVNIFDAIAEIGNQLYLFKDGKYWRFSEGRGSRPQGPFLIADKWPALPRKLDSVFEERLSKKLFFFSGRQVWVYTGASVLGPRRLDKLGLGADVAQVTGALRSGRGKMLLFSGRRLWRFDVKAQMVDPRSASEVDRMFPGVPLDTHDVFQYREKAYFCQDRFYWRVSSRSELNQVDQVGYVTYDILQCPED
molecule,measurement,setting,value
"SELP815K: silk-elastin-like protein polymer, longer silk units, fifteen elastin units, lysine elastin unit; monomer repeated 6 times (SEQ ID NO. 21) (protein, monomer repeated 6 times; Hybrid of Homo sapein and Bombyx mori) MDPVVLQRRDWENPGVTQLNRLAAHPPFASDPMGAGSGAGAGSGAGAGSGVGVPGVGVPGVGVPGVGVPGKGVPGVGVPGVGVPGVGVPGVGVPGVGVPGVGVPGVGVPGVGVPGVGVPGVGVPGVGVPGAGAGSGAGAGSGAGAGSGAGAGSGAGAGSGAGAGAGSGAGAGSGAGAGSGVGVPGVGVPGVGVPGVGVPGKGVPGVGVPGVGVPGVGVPGVGVPGVGVPGVGVPGVGVPGVGVPGVGVPGVGVPGVGVPGAGAGSGAGAGSGAGAGSGAGAGSGAGAGSGAGAGAGSGAGAGSGAGAGSGVGVPGVGVPGVGVPGVGVPGKGVPGVGVPGVGVPGVGVPGVGVPGVGVPGVGVPGVGVPGVGVPGVGVPGVGVPGVGVPGAGAGSGAGAGSGAGAGSGAGAGSGAGAGSGAGAGAGSGAGAGSGAGAGSGVGVPGVGVPGVGVPGVGVPGKGVPGVGVPGVGVPGVGVPGVGVPGVGVPGVGVPGVGVPGVGVPGVGVPGVGVPGVGVPGAGAGSGAGAGSGAGAGSGAGAGSGAGAGSGAGAGAGSGAGAGSGAGAGSGVGVPGVGVPGVGVPGVGVPGKGVPGVGVPGVGVPGVGVPGVGVPGVGVPGVGVPGVGVPGVGVPGVGVPGVGVPGVGVPGAGAGSGAGAGSGAGAGSGAGAGSGAGAGSGAGAGAGSGAGAGSGAGAGSGVGVPGVGVPGVGVPGVGVPGKGVPGVGVPGVGVPGVGVPGVGVPGVGVPGVGVPGVGVPGVGVPGVGVPGVGVPGVGVPGAGAGSGAGAGSGAGAGSGAGAGSGAGAGSGAGAMDPGRYQDLRSHHHHHH",storage modulus,[1],falls between those of SELP47K and 415K
same,tumor regrowth / recovery observation,[2]; out to day 33,"full recovery, with no evidence of a tumor out to day 33"
same,reduction in tumor size compared to virus in saline,[2]; over 33 days,3 fold
same,higher protein loss compared to control,[3],statistically insignificant

# Reference: US10253089B2, “Matrix metalloproteinase cleavable protein polymers for cancer gene therapy” (The University of Utah Research Foundation, priority 2012, dated 2019)
